Test results reported in patent US20200405868A1, “GEL-FORMING POLYPEPTIDES” (priority 2018, published 2020).
“Also recorded” adds a separate entry of the source. The star is where a group is joined. Palmitoyl = CCCCCCCCCCCCCCCC(=O)*

Assay: Compound gel-forming ability in water (visual inspection, tube tapping assay, tilted tube assay);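 further: peptides mixed with de-ionized water at about 22-25 °C, judged after 20 min by eye plus tube tapping (10 taps, moves counted) and 90° tilt mobility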
Type: physicochemical
Settings: for Physical property at 11% w/w: 11% w/w in aqueous solution, room temperature; for gel formation in aqueous solution, 11% / propensity to form gels, chimeric or mutated polypeptides, 11% / propensity to form gels, wild-type counterparts, 11%: 11% w/w; for gel formation at 11% w/w: 11% w/w in water; for gel formation at 20% w/w: 20% w/w in water; for gel formation in aqueous solution, 20% / propensity to form gels, chimeric or mutated polypeptides, 20%: 20% w/w; for gel formation at 6% w/w: 6% w/w in water; for gel formation in aqueous solution, 3% / propensity to form gels, chimeric or mutated polypeptides, 3%: 3% w/w

Compound | gel formation in aqueous solution, 11% (Table 3) | gel formation at 11% w/w | propensity to form gels, chimeric or mutated polypeptides, 11% (Table 5) | gel formation in aqueous solution, 6% (Table 3, 6% w/w) | also measured
Pal-KVQKLNFVPTNVGSKAF-NH2 [SEQ ID NO:135] | – | – | – | – | Physical property at 11% w/w (Table 2): AS/IS (AS/IS for aqueous solution or insoluble)
Pal-SSPHSY-miniPEG-(D-Arg)-Arg-Pro-Hyp-Gly-Thi-Ser-(D-Tic)-Oic-Arg [SEQ ID NO:233] | AS/IS (AS/IS for aqueous solution or insoluble) | – | – | – | gel formation at 30% w/w (30% w/w in water): semisolid gel; gel formation in aqueous solution, 30% (Table 3, 30% w/w): SS (SS for semisolid gel)
Pal-SSPHSY-miniPEG-VGVAPG-NH2 [SEQ ID NO:248] | – | liquid gel | – | – | gel formation at 20% w/w: semisolid gel; gel formation in aqueous solution, 20% (Table 3): SS (SS for semisolid gel); propensity to form gels, chimeric or mutated polypeptides, 20% (Table 5): SS (An ability to form semisolid gel is represented by an SS)
Pal-KVQKLSAPVDPSSPHSY-miniPEG-CYIQNCPLG-NH2 [SEQ ID NO:205] | SS (SS for semisolid gel) | semisolid gel | SS (An ability to form semisolid gel is represented by an SS) | – | gel formation at 6% w/w: liquid gel
Pal-SSPHSY-miniPEG-YADAIFTNSYRKVLGQLSARKLLQDIMSR-NH2 [SEQ ID NO:236] | AS/IS (AS/IS for aqueous solution or insoluble) | – | – | AS/IS (AS/IS for aqueous solution or insoluble) | –
Pal-KVQKLSAPVDPSSPHSY-miniPEG-(D-Tyr)QWAV(β-Ala)HF(Nle)-NH2 [SEQ ID NO:209] | SS (SS for semisolid gel) | – | SS (An ability to form semisolid gel is represented by an SS) | SS (SS for semisolid gel) | gel formation in aqueous solution, 3% (Table 3): SS (SS for semisolid gel); propensity to form gels, chimeric or mutated polypeptides, 3% (Table 5): SS (An ability to form semisolid gel is represented by an SS); propensity to form gels, chimeric or mutated polypeptides, 6% (Table 5, 6% w/w): SS (An ability to form semisolid gel is represented by an SS)
PFRSVQ-NH2 [SEQ ID NO:37, reference compound] | AS/IS (AS/IS for aqueous solution or insoluble) | does not form gel | – | – | Physical property at 11% w/w (Table 1): AS/IS; propensity to form gels, wild-type counterparts, 11% (Table 5): AS/IS
Pal-KVQKLSAPVDPSSPHSY-miniPEG-EHWSY-(D-2Nal)-LRPG-NH2 [SEQ ID NO:201] | SS (SS for semisolid gel) | semisolid gel | SS (An ability to form semisolid gel is represented by an SS) | SS (SS for semisolid gel) | gel formation at 3% w/w (3% w/w in water): semisolid gel; gel formation at 6% w/w: semisolid gel; gel formation in aqueous solution, 3% (Table 3): SS (SS for semisolid gel); propensity to form gels, chimeric or mutated polypeptides, 3% (Table 5): SS (An ability to form semisolid gel is represented by an SS); propensity to form gels, chimeric or mutated polypeptides, 6% (Table 5, 6% w/w): SS (An ability to form semisolid gel is represented by an SS)
Pal-VGSNTY-NH2 [SEQ ID NO:133] | – | – | – | – | Physical property at 11% w/w (Table 2): AS/IS (AS/IS for aqueous solution or insoluble)
HAEGTFTSDVSSYLEGQAAKEFIAWLVKGR-NH2 [SEQ ID NO:14, reference compound] | – | liquid gel | – | AS/IS (AS/IS for aqueous solution or insoluble) | propensity to form gels, wild-type counterparts, 6% (Table 5, 6% w/w): AS/IS
Pal-SSPHSY-miniPEG-SDAAVDTSSEITTKDLKEKKEVVEEAEN-NH2 ({Palmitoyl-Ser-Ser-Pro-H2N-Ser-Tyr-miniPEG}-SDAAVDTSSEITTKDLKEKKEVVEEAEN-NH2) [SEQ ID NO:239] | AS/IS (AS/IS for aqueous solution or insoluble) | does not form gel | – | – | –
CC[C@H](C)[C@H](N)C(=O)N[C@H]1CSSC[C@@H](C(=O)N[C@H](C(N)=O)[C@@H](C)O)NC(=O)[C@H](CCCN=C(N)N)NC(=O)[C@H](Cc2cnc[nH]2)NC(=O)[C@H](Cc2cnc[nH]2)NC(=O)CNC(=O)[C@H](Cc2c[nH]c3ccccc23)NC(=O)[C@H](CC(=O)O)NC(=O)[C@H](CCC(N)=O)NC(=O)[C@H](C(C)C)NC(=O)[C@H](C(C)C)NC1=O [SEQ ID NO:11, reference compound] | SS (SS for semisolid gel) | form self-assembling gels; also recorded: semisolid gel | – | – | Physical property at 11% w/w (Table 1): SS (SS for semisolid gel); propensity to form gels, wild-type counterparts, 11% (Table 5): SS (An ability to form semisolid gel is represented by an SS)
Pal-HSYADAIFTNSYRKVLGQLSARKLLQDIMSR-NH2 (Palmitoyl-HSYADAIFTNSYRKVLGQLSARKLLQDIMSR-NH2; SMILES CCCCCCCCCCCCCCCC(=O)N[C@@H](Cc1c[nH]cn1)C(=O)N[C@@H](CO)C(=O)N[C@@H](Cc1ccc(O)cc1)C(=O)N[C@@H](C)C(=O)N[C@@H](CC(=O)O)C(=O)N[C@@H](C)C(=O)N[C@H](C(=O)N[C@@H](Cc1ccccc1)C(=O)N[C@H](C(=O)N[C@@H](CC(N)=O)C(=O)N[C@@H](CO)C(=O)N[C@@H](Cc1ccc(O)cc1)C(=O)N[C@@H](CCCNC(=N)N)C(=O)N[C@@H](CCCCN)C(=O)N[C@H](C(=O)N[C@@H](CC(C)C)C(=O)NCC(=O)N[C@@H](CCC(N)=O)C(=O)N[C@@H](CC(C)C)C(=O)N[C@@H](CO)C(=O)N[C@@H](C)C(=O)N[C@@H](CCCNC(=N)N)C(=O)N[C@@H](CCCCN)C(=O)N[C@@H](CC(C)C)C(=O)N[C@@H](CC(C)C)C(=O)N[C@@H](CCC(N)=O)C(=O)N[C@@H](CC(=O)O)C(=O)N[C@H](C(=O)N[C@@H](CCSC)C(=O)N[C@@H](CO)C(=O)N[C@@H](CCCNC(=N)N)C(N)=O)[C@@H](C)CC)C(C)C)[C@@H](C)O)[C@@H](C)CC) [SEQ ID NO:237] | AS/IS (AS/IS for aqueous solution or insoluble) | – | AS/IS | AS/IS (AS/IS for aqueous solution or insoluble) | gel formation at 20% w/w: semisolid gel; gel formation in aqueous solution, 20% (Table 3): SS (SS for semisolid gel); propensity to form gels, chimeric or mutated polypeptides, 6% (Table 5, 6% w/w): AS/IS; propensity to form gels, chimeric or mutated polypeptides, 20% (Table 5): SS (An ability to form semisolid gel is represented by an SS)
Ace-NFVPTNVGPFAF-NH2 (Ac-NFVPTNVGPFAF-NH2) [SEQ ID NO:134] | – | – | – | – | Physical property at 11% w/w (Table 2): AS/IS (AS/IS for aqueous solution or insoluble)
Pal-HSDAAVDTSSEITTKDLKEKKEVVEEAEN-NH2 [SEQ ID NO:267] | SS (SS for semisolid gel) | semisolid gel | SS (An ability to form semisolid gel is represented by an SS) | SS (SS for semisolid gel) | propensity to form gels, chimeric or mutated polypeptides, 6% (Table 5, 6% w/w): SS (An ability to form semisolid gel is represented by an SS)
Pal-SDAAVDTSSEITTKDLKEKKEVVEEAEN-NH2 [SEQ ID NO:268] | SS (SS for semisolid gel) | semisolid gel | SS (An ability to form semisolid gel is represented by an SS) | – | –
CSNLSTCVLGKLSQELHKLQTYPRTNTGSGTP-NH2 [SEQ ID NO:28, reference compound] | – | does not form gel | – | – | Physical property at 11% w/w (Table 1): AS/IS; gel formation in aqueous solution, 20% (Table 3): AS/IS (AS/IS for aqueous solution or insoluble); propensity to form gels, wild-type counterparts, 11% (Table 5): AS/IS
Pal-KPSSPHSY-NH2 (Palmitoyl-KPSSPHSY-NH2; SMILES CCCCCCCCCCCCCCCC(=O)N[C@@H](CCCCN)C(=O)N1CCC[C@H]1C(=O)N[C@@H](CO)C(=O)N[C@@H](CO)C(=O)N1CCC[C@H]1C(=O)N[C@@H](Cc1c[nH]cn1)C(=O)N[C@@H](CO)C(=O)N[C@@H](Cc1ccc(O)cc1)C(N)=O) [SEQ ID NO:118] | – | – | – | – | Physical property at 11% w/w (Table 2): SS (SS for semisolid gel)
Pal-SSPHSY-miniPEG-KCNTATCATQRLANFLVHSSNNFGPILPPTNVGSNTY-NH2 ({Palmitoyl-Ser-Ser-Pro-H2N-Ser-Tyr-miniPEG}-KCNTATCATQRLANFLVHSSNNFGPILPPTNVGSNTY-NH2; ends and bridges not checked) [SEQ ID NO:218] | SS (SS for semisolid gel) | semisolid gel | SS (An ability to form semisolid gel is represented by an SS) | SS (SS for semisolid gel) | gel formation at 6% w/w: semisolid gel; propensity to form gels, chimeric or mutated polypeptides, 6% (Table 5, 6% w/w): SS (An ability to form semisolid gel is represented by an SS)
Pal-SSPHSY-miniPEG-RGD-NH2 [SEQ ID NO:247] | SS (SS for semisolid gel) | semisolid gel | SS (An ability to form semisolid gel is represented by an SS) | – | –
Pal-KVQKLSAPVDPSSPHSY-miniPEG-Sar-RVYVHPA-NH2 [SEQ ID NO:216] | – | liquid gel | – | – | gel formation at 20% w/w: liquid gel
Ace-RADARADARADARADA-NH2 [SEQ ID NO:142, reference compound] | – | – | – | – | Physical property at 11% w/w (Table 2): SS (SS for semisolid gel)
